Results taken from patent US20110300138A1 (published 2011).

Experiments:
[1] = target: human TSHR (thyroid stimulating hormone receptor) expressed in transfected CHO cells (human) (UniProt P16473); test: cell-based or functional assay
[2] = target: human TSH receptor (full length, wild type) expressed on CHO cells (human) (UniProt P16473); test: cell-based or functional assay
[3] = target: TSHR260-alkaline phosphatase (TSHR260-AP) (human) (UniProt P05187); test: TSHR260-AP bridge ELISA, full length TSHR on wells; 1 µg/mL, diluted in HBD
[4] = target: TSHR260-alkaline phosphatase (TSHR260-AP) (human) (UniProt P05187); test: TSHR260-AP bridge ELISA, full length TSHR on wells; 100 µg/mL, diluted in HBD
[5] = target: TSHR260-alkaline phosphatase (TSHR260-AP) (human) (UniProt P05187); test: TSHR260-AP bridge ELISA, full length TSHR on wells; 10 µg/mL, diluted in assay buffer
[6] = target: TSHR260-alkaline phosphatase (TSHR260-AP) (human) (UniProt P05187); test: TSHR260-AP bridge ELISA, full length TSHR on wells; 0.5 µg/mL, diluted in assay buffer
[7] = target: TSHR260-alkaline phosphatase (TSHR260-AP) (human) (UniProt P05187); test: TSHR260-AP bridge ELISA, full length TSHR on wells; 250 µg/mL, diluted in assay buffer
TSHR260-AP (human) [8] = test: TSHR260-AP bridge ELISA (full length TSHR on wells, TSHR260-AP in solution); IgG 100 µg/mL diluted in HBD serum
TSHR260-AP (human) [9] = test: TSHR260-AP bridge ELISA (full length TSHR on wells, TSHR260-AP in solution); IgG 0.05 µg/mL diluted in HBD serum
TSHR260-AP (human) [10] = test: TSHR260-AP bridge ELISA (full length TSHR on wells, TSHR260-AP in solution); IgG 1 µg/mL diluted in assay buffer
TSHR260-AP (human) [11] = test: TSHR260-AP bridge ELISA (full length TSHR on wells, TSHR260-AP in solution); IgG 0.005 µg/mL diluted in HBD serum
TSHR260-AP (human) [12] = test: TSHR260-AP bridge ELISA (full length TSHR on wells, TSHR260-AP in solution); IgG 10 µg/mL diluted in assay buffer
TSHR260-AP (human) [13] = test: TSHR260-AP bridge ELISA (full length TSHR on wells, TSHR260-AP in solution); IgG 0.5 µg/mL diluted in assay buffer
TSHR260-AP (human) [14] = test: TSHR260-AP bridge ELISA (full length TSHR on wells, TSHR260-AP in solution); IgG 0.05 µg/mL diluted in assay buffer
TSHR260-AP (human) [15] = test: TSHR260-AP bridge ELISA (full length TSHR on wells, TSHR260-AP in solution); IgG 0.005 µg/mL diluted in assay buffer

M22 IgG (antibody), sequence (VH): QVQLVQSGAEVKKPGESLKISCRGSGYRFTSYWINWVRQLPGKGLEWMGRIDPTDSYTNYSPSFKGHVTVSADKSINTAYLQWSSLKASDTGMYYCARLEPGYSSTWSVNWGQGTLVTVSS
M22 IgG (antibody), sequence (V domain): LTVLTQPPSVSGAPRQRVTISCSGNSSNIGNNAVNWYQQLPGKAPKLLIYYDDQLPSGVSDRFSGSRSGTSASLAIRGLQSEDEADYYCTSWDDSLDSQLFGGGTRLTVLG

M22 IgG (antibody)
Cyclic AMP concentration; 3 ng/mL M22 IgG [1]: 21.3 pmol/mL
Cyclic AMP concentration; 3 ng/mL M22 IgG alone [2]: 33.1 pmol/mL
Mean absorbance at 405 nm (absorbance at 405 nm) [3]: 0.726
Mean absorbance at 405 nm (absorbance at 405 nm) [4]: 0.851
Mean absorbance at 405 nm (absorbance at 405 nm) [5]: 0.872
Mean absorbance at 405 nm (absorbance at 405 nm) [6]: 0.776
Mean absorbance at 405 nm (absorbance at 405 nm) [7]: 1.01
Mean absorbance at 405 nm (absorbance at 405 nm) (TSHR260-AP (human) [8]): 0.851
Mean absorbance at 405 nm (absorbance at 405 nm) (TSHR260-AP (human) [9]): 0.204
Mean absorbance at 405 nm (absorbance at 405 nm) (TSHR260-AP (human) [10]): 0.821
Mean absorbance at 405 nm (absorbance at 405 nm) (TSHR260-AP (human) [11]): 0.045
Mean absorbance at 405 nm (absorbance at 405 nm) (TSHR260-AP (human) [12]): 0.872
Mean absorbance at 405 nm (absorbance at 405 nm) (TSHR260-AP (human) [13]): 0.776
Mean absorbance at 405 nm (absorbance at 405 nm) (TSHR260-AP (human) [14]): 0.484
Mean absorbance at 405 nm (absorbance at 405 nm) (TSHR260-AP (human) [15]): 0.075
